# Data as given in paper PMC4564947 (Nature structural & molecular biology, 2015).
# Residue numbers refer to the chain shown, from its start. Names may count otherwise. “And” between values parts separate entries of the source, which are not always exact repeats. Equal entries are not always repeated.
# B1: FLAG-tagged full-length wild-type CtIP purified from HEK-293T cells (natural protein)
# chain: MNISGSSCGSPNSADTSSDFKDLWTKLKECHDREVQGLQVKVTKLKQERILDAQRLEEFFTKNQQLREQQKVLHETIKVLEDRLRAGLCDRCAVTEEHMRKKQQEFENIRQQNLKLITELMNERNTLQEENKKLSEQLQQKIENDQQHQAAELECEEDVIPDSPITAFSFSGVNRLRRKENPHVRYIEQTHTKLEHSVCANEMRKVSKSSTHPQHNPNENEILVADTYDQSQSPMAKAHGTSSYTPDKSSFNLATVVAETLGLGVQEESETQGPMSPLGDELYHCLEGNHKKQPFEESTRNTEDSLRFSDSTSKTPPQEELPTRVSSPVFGATSSIKSGLDLNTSLSPSLLQPGKKKHLKTLPFSNTCISRLEKTRSKSEDSALFTHHSLGSEVNKIIIQSSNKQILINKNISESLGEQNRTEYGKDSNTDKHLEPLKSLGGRTSKRKKTEEESEHEVSCPQASFDKENAFPFPMDNQFSMNGDCVMDKPLDLSDRFSAIQRQEKSQGSETSKNKFRQVTLYEALKTIPKGFSSSRKASDGNCTLPKDSPGEPCSQECIILQPLNKCSPDNKPSLQIKEENAVFKIPLRPRESLETENVLDDIKSAGSHEPIKIQTRSDHGGCELASVLQLNPCRTGKIKSLQNNQDVSFENIQWSIDPGADLSQYKMDVTVIDTKDGSQSKLGGETVDMDCTLVSETVLLKMKKQEQKGEKSSNEERKMNDSLEDMFDRTTHEEYESCLADSFSQAADEEEELSTATKKLHTHGDKQDKVKQKAFVEPYFKGDERETSLQNFPHIEVVRKKEERRKLLGHTCKECEIYYADMPAEEREKKLASCSRHRFRYIPPNTPENFWEVGFPSTQTCMERGYIKEDLDPCPRPKRRQPYNAIFSPKGKEQKT
# B2: CtIP N-terminal domain (CtIP-NTD), human CtIP residues 18-145 (domain or fragment)
# chain: SDFKDLWTKLKECHDREVQGLQVKVTKLKQERILDAQRLEEFFTKNQQLREQQKVLHETIKVLEDRLRAGLCDRCAVTEEHMRKKQQEFENIRQQNLKLITELMNERNTLQEENKKLSEQLQQKIEND
# B3: F20E CtIP-NTD, human CtIP residues 18-145 with F20E (domain or fragment)
# chain: B2 chain with F3E
# B4: CtIP-NTD-DM, C89A C92A double mutant of CtIP residues 18-145 (domain or fragment)
# chain: B2 chain with C72A, C75A
# B5: CtIP-cNTD, human CtIP residues 52-145 (domain or fragment)
# chain: DAQRLEEFFTKNQQLREQQKVLHETIKVLEDRLRAGLCDRCAVTEEHMRKKQQEFENIRQQNLKLITELMNERNTLQEENKKLSEQLQQKIEND
# B6: CtIP-cNTD-DM, C89A C92A double mutant of CtIP residues 52-145 (domain or fragment)
# chain: B5 chain with C38A, C41A
# B7: L27E CtIP-NTD, human CtIP residues 18-145 with L27E (domain or fragment)
# chain: B2 chain with L10E
# B8: Δ20-27 CtIP-NTD, human CtIP residues 18-145 with residues 20-27 deleted (domain or fragment)
# chain: SDKECHDREVQGLQVKVTKLKQERILDAQRLEEFFTKNQQLREQQKVLHETIKVLEDRLRAGLCDRCAVTEEHMRKKQQEFENIRQQNLKLITELMNERNTLQEENKKLSEQLQQKIEND
# Target: the molecule itself
# Test: SEC
row,Protein,binding result
1,B1,binds

# Target: the molecule itself
# Test: SEC-MALS
row,Protein,stoichiometry N
1,B2,4
2,B3,2 and 4
3,B4,4
4,B5,2
5,B6,2
6,"SDFKDLWTKLKECHDREVQGLQVKVTKLKQERILD (domain or fragment) [CtIP-nNTD, tetramerization domain of human CtIP, residues 18-52]",4
7,SDFKDLWTKLKECHDREVQGLQVKVTKLKQERILD (domain or fragment) [CtIP-nNTD (residues 18-52) fused to a maltose-binding protein (MBP) tag],4
8,B7,2
9,B8,2
